How the values were obtained:
[1] = target: GITR protein overexpressed on Hela cells (Hela-GITR-NF-κB-Luc-Rep); assay: cell-based or functional assay
human GITR-His (human) [2] = target: human GITR-His (human) (UniProt Q9Y5U5); assay: ForteBio BLI, antibody on AHQ tip, human GITR-His 100 nM in solution
human GITR-His (human) [3] = target: human GITR-His (human) (UniProt Q9Y5U5); assay: as above; remark: listed apart in the source
human GITR-His (human) [4] = target: human GITR-His (human) (UniProt Q9Y5U5); assay: ForteBio BLI, antibody on AHQ tip, human GITR-His 100 nM in solution, 1:1 model
[5] = target: human GITR overexpressed on CHO cells (CHO-GITR) (human) (UniProt Q9Y5U5); assay: flow cytometry on CHO-GITR cells, PE anti-human Fc detection, MFI; direct binding titration, the table row is labelled IC50, nM is taken from the concentration axis
Chain of human GITR overexpressed on CHO cells (CHO-GITR) (human) (Q9Y5U5 26-241): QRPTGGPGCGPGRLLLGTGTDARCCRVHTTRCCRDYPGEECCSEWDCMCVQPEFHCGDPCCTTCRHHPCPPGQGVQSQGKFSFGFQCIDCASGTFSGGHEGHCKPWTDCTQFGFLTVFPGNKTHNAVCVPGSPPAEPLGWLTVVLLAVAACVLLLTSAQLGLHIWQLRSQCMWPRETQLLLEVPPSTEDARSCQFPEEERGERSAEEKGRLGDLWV

Chain of human GITR-His (human) (Q9Y5U5 other isoform, or with tags, fused parts or gaps): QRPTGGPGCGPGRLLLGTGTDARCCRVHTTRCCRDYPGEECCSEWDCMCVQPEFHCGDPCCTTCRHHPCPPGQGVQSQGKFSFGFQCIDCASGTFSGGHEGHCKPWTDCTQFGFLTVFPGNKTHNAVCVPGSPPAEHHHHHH

EC50 for the activation (NF-κB luciferase reporter) [1]: 2.1 nM
Kd (human GITR-His (human) [2]): 8.53 nM
koff (human GITR-His (human) [2]): 0.00292 s⁻¹
kon (human GITR-His (human) [2]): 342000 M⁻¹ s⁻¹
Kd (human GITR-His (human) [3]): 9.62 nM
koff (human GITR-His (human) [3]): 0.00206 s⁻¹
kon (human GITR-His (human) [3]): 214000 M⁻¹ s⁻¹
Kd (human GITR-His (human) [4]): 26.2 nM
koff (human GITR-His (human) [4]): 0.00484 s⁻¹
kon (human GITR-His (human) [4]): 185000 M⁻¹ s⁻¹
EC50 for binding [5]: 0.242 nM
Substance: TRX518 (antibody)

— US20220267458A1
